Consider three substances from publication PMC3712923.

Experiment [1] concerns the target β-lactamase-SBP fusion. Put plainly: SPR; BIAcoreX; purified β-lactamase-SBP amine-coupled to a CM5 chip, streptavidin variant as analyte; blank flow cell as reference. (In general: SPR reads the build-up and loss of mass on a sensor chip optically.)
The target of experiment [2] is SAVSBPM18 engineered streptavidin (S27A, G48T) (UniProt P22629). Briefly: affinity column chromatography; streptavidin variant coupled to Affi-gel 15; culture supernatant with β-lactamase-SBP loaded at 20% of the theoretical column binding capacity (non-overloaded); PBS wash, elution with 5 mM d-biotin.
The target in experiment [3] is wild-type streptavidin (UniProt P22629). The experiment is described as above.
Experiment [4] concerns the target SAVSBPM18 engineered streptavidin (S27A, G48T) (UniProt P22629). Put plainly: affinity column chromatography; streptavidin variant coupled to Affi-gel 15; culture supernatant with β-lactamase-SBP loaded at 142-150% of the theoretical column binding capacity (overloaded); leakage during washing; pure wash fractions pooled with the elution fractions.
The target in experiment [5] is wild-type streptavidin (UniProt P22629). The experiment is described as above.
For experiment [6], the target named is SAVSBPM18 engineered streptavidin (S27A, G48T) (UniProt P22629). The description is as above. The source holds these as a separate data set.

Sequence of SAVSBPM18 engineered streptavidin (S27A, G48T) (P22629 25-183 S51A/G72T): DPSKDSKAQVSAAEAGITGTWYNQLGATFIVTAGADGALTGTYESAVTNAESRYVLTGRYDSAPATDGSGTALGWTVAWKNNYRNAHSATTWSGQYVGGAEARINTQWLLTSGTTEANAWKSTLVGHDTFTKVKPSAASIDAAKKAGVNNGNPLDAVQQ
Sequence of wild-type streptavidin (from UniProt P22629 25-183) (natural protein) (P22629 25-183): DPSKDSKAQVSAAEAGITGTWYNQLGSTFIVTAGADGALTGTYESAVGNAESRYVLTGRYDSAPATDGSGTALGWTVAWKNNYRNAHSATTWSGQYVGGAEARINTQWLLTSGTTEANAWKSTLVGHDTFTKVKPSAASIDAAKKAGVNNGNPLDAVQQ
Sequence of wild-type streptavidin (UniProt P22629) (P22629 25-183): as above

The term Kd denotes a measure of binding affinity in units of concentration. Lower therefore signals tighter binding. Broadly, the koff is a measure of how fast the partners let go of each other. Read a low koff as a long-lived complex. Broadly, the kon is the second-order rate constant of association. For the substance “SAVSBPM18 engineered streptavidin (S27A, G48T) (from UniProt P22629 25-183) (designed binder)”, in experiment [1], the Kd turned out to be 15.7 nM, the koff is 0.000711 s⁻¹ and the kon is 45300 M⁻¹ s⁻¹.

On to “wild-type streptavidin (from UniProt P22629 25-183) (natural protein)”, for which, in experiment [1], the Kd was determined as 8.59 nM, the koff came out at 0.000816 s⁻¹ and the kon is 95000 M⁻¹ s⁻¹.

As to β-lactamase-SBP fusion, the percent recovery in experiment [2] was found to be 91%; in experiment [3], 90%; in experiment [4] it was 58%; in experiment [5], 51%; in experiment [6], 51%.
